Data: publication PMC8924211 (Nature Communications, 2022)
Changes are numbered by the printed parent chain. Several values for one entry are separate records, joined by “and”; a condition that tells them apart may be missing. Equal entries are not always repeated.

Tests used:
SNAP-GAL2R R184^5.35A = molecular target: T1, SNAP-GAL2R R184^5.35A (human, UniProt O43603 1-387, R184^5.35A, Lumi4-Tb on the SNAP tag)
T1 construct: also called R184A; source: HEK293, transfected, on cells; not shown: SNAP tag, N-terminal, kept
T1 sequence (looked up): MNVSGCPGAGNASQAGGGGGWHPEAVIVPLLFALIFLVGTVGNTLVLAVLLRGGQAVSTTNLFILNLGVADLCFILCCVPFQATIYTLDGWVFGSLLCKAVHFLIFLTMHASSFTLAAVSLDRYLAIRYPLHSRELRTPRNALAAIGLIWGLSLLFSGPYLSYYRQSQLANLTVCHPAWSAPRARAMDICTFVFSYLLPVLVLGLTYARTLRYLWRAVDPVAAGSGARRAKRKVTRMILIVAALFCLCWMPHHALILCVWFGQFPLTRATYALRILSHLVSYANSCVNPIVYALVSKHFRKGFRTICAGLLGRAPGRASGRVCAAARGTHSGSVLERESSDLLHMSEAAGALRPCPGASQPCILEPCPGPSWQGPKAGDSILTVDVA

[1] = molecular target: SNAP-GAL2R L266^ECL3A (human) (UniProt O43603)
[2] = molecular target: SNAP-GAL2R Y86^2.65A (human) (UniProt O43603)
[3] = molecular target: SNAP-GAL2R F264^ECL3A (human) (UniProt O43603)
[4] = molecular target: SNAP-GAL2R Y271^7.32A (human) (UniProt O43603)
SNAP-GAL2R L172^ECL2A [5] = molecular target: T2, SNAP-GAL2R L172^ECL2A (human, UniProt O43603 1-387, L172^ECL2A, Lumi4-Tb on the SNAP tag)
T2 construct: also called L172A; source: HEK293, transfected, on cells; not shown: SNAP tag, N-terminal, kept
T2 sequence (looked up): T1 sequence (looked up) with L172A, A184R

SNAP-GAL2R L169^ECL2A [6] = molecular target: T3, SNAP-GAL2R L169^ECL2A (human, UniProt O43603 1-387, L169^ECL2A, Lumi4-Tb on the SNAP tag)
T3 construct: also called L169A; source: HEK293, transfected, on cells; not shown: SNAP tag, N-terminal, kept
T3 sequence (looked up): T1 sequence (looked up) with L169A, A184R

SNAP-GAL2R A170^ECL2S [7] = molecular target: T4, SNAP-GAL2R A170^ECL2S (human, UniProt O43603 1-387, A170^ECL2S, Lumi4-Tb on the SNAP tag)
T4 construct: also called A170S; source: HEK293, transfected, on cells; not shown: SNAP tag, N-terminal, kept
T4 sequence (looked up): T1 sequence (looked up) with A170S, A184R

SNAP-GAL2R T267^7.28A = molecular target: T5, SNAP-GAL2R T267^7.28A (human, UniProt O43603 1-387, T267^7.28A, Lumi4-Tb on the SNAP tag)
T5 construct: also called T267A; source: HEK293, transfected, on cells; not shown: SNAP tag, N-terminal, kept
T5 sequence (looked up): T1 sequence (looked up) with A184R, T267A

[8] = molecular target: SNAP-GAL2R I85^2.64A (human) (UniProt O43603)
[9] = molecular target: SNAP-GAL2R Q82^2.61A (human) (UniProt O43603)
SNAP-GAL2R V259^6.58A [10] = molecular target: T6, SNAP-GAL2R V259^6.58A (human, UniProt O43603 1-387, V259^6.58A, Lumi4-Tb on the SNAP tag)
T6 construct: also called V259A; source: HEK293, transfected, on cells; not shown: SNAP tag, N-terminal, kept
T6 sequence (looked up): T1 sequence (looked up) with A184R, V259A

SNAP-GAL2R L255^6.54A = molecular target: T7, SNAP-GAL2R L255^6.54A (human, UniProt O43603 1-387, L255^6.54A, Lumi4-Tb on the SNAP tag)
T7 construct: also called L255A; source: HEK293, transfected, on cells; not shown: SNAP tag, N-terminal, kept
T7 sequence (looked up): T1 sequence (looked up) with A184R, L255A

SNAP-GAL2R I256^6.55A = molecular target: T8, SNAP-GAL2R I256^6.55A (human, UniProt O43603 1-387, I256^6.55A, Lumi4-Tb on the SNAP tag)
T8 construct: also called I256A; source: HEK293, transfected, on cells; not shown: SNAP tag, N-terminal, kept
T8 sequence (looked up): T1 sequence (looked up) with A184R, I256A

[11] = molecular target: SNAP-GAL2R L266^ECL3A (human) (UniProt O43603); remark: listed apart in the source
[12] = molecular target: SNAP-GAL2R F264^ECL3A (human) (UniProt O43603); remark: listed apart in the source
[13] = molecular target: SNAP-GAL2R Y271^7.32A (human) (UniProt O43603); remark: listed apart in the source
SNAP-GAL2R L172^ECL2A [14] = molecular target: T2, SNAP-GAL2R L172^ECL2A; remark: listed apart in the source
SNAP-GAL2R L169^ECL2A [15] = molecular target: T3, SNAP-GAL2R L169^ECL2A; remark: listed apart in the source
SNAP-GAL2R A170^ECL2S [16] = molecular target: T4, SNAP-GAL2R A170^ECL2S; remark: listed apart in the source
SNAP-GAL2R V259^6.58A [17] = molecular target: T6, SNAP-GAL2R V259^6.58A; remark: listed apart in the source

galanin (full length, unlabeled) (peptide)
calcium assay EC50 (galanin; HEK293/Gα16 cells) (SNAP-GAL2R R184^5.35A): 138 nM and 115 nM and 58 nM | calcium assay EC50 (galanin; HEK293/Gα16 cells) [1]: 27900 nM and 7140 nM | calcium assay EC50 (galanin; HEK293/Gα16 cells) [2]: 3230 nM and 2210 nM | calcium assay EC50 (galanin; HEK293/Gα16 cells) [3]: 1760 nM and 2390 nM and 3590 nM | calcium assay EC50 (galanin; HEK293/Gα16 cells) [4]: 515 nM and 678 nM and 969 nM | calcium assay EC50 (galanin; HEK293/Gα16 cells) (SNAP-GAL2R L172^ECL2A [5]): 59 nM and 71.7 nM and 55.4 nM | calcium assay EC50 (galanin; HEK293/Gα16 cells) (SNAP-GAL2R L169^ECL2A [6]): 93.5 nM and 82.5 nM and 22.5 nM | calcium assay EC50 (galanin; HEK293/Gα16 cells) (SNAP-GAL2R A170^ECL2S [7]): 10 nM and 8.08 nM and 12.4 nM | calcium assay EC50 (galanin; HEK293/Gα16 cells) (SNAP-GAL2R T267^7.28A): 3150 nM and 2330 nM and 1260 nM | calcium assay EC50 (galanin; HEK293/Gα16 cells) [8]: 5200 nM and 4440 nM and 1380 nM | calcium assay EC50 (galanin; HEK293/Gα16 cells) [9]: 4680 nM and 4340 nM and 2980 nM | calcium assay EC50 (galanin; HEK293/Gα16 cells) (SNAP-GAL2R V259^6.58A [10]): 290 nM and 275 nM and 205 nM | calcium assay EC50 (galanin; HEK293/Gα16 cells) (SNAP-GAL2R L255^6.54A): 153 nM and 293 nM

spexin (mature, 14 amino acids) (peptide)
calcium assay EC50 (spexin) (SNAP-GAL2R I256^6.55A): 674 nM and 438 nM and 924 nM | calcium assay EC50 (spexin) [11]: 25100 nM and 15300 nM and 12000 nM | calcium assay EC50 (spexin) [12]: > 100000 nM | calcium assay EC50 (spexin) [13]: 5960 nM and 1580 nM and 752 nM | calcium assay EC50 (spexin) (SNAP-GAL2R L172^ECL2A [14]): 3120 nM and 10800 nM and 12100 nM | calcium assay EC50 (spexin) (SNAP-GAL2R L169^ECL2A [15]): 7170 nM and 5140 nM and 1830 nM | calcium assay EC50 (spexin) (SNAP-GAL2R A170^ECL2S [16]): 95.4 nM and 151 nM (2×) | calcium assay EC50 (spexin) (SNAP-GAL2R V259^6.58A [17]): 1330 nM and 6620 nM and 6150 nM
